From publication PMC4935880, “COG lobe B sub-complex engages v-SNARE GS15 and functions via regulated interaction with lobe A sub-complex” (Scientific Reports, 2016)
Values belong to the molecule of their own block, whether it stands above or below them.

Tests used:
[1] = target: GFP-hGS15 (human) (UniProt Q9NYM9); assay: co-IP; GFP IP on GBP (GFP binding protein) beads from lysates of transfected HEK293T cells (50 mM Tris pH 7.4, 150 mM NaCl, 1% Triton X-100), 2 h at room temperature; blotted for COG8, Myc and GFP
[2] = target: GFP-hGS15 (human) (UniProt Q9NYM9); assay: co-IP; HEK293T cells with lobe B-myc and a GFP-tagged partner fractionated into P15, P100 and S100; membrane pellets solubilised with Triton X-100 and incubated with GBP-beads; blotted with anti-Myc and anti-GFP
[3] = target: T1, lobe B complex isolated from HEK cells (GFP-hCOG5 + hCOG6/8-3Myc + hCOG7-3Myc) (human, UniProt Q9UP83 1-860; Q9Y2V7 1-657; P83436 1-770; Q96MW5 1-612); assay: pull-down; GST-tagged GS15 proteins held on Glutathione Sepharose 4B; whole COG complex or lobe B isolated from HEK cells added in 25 mM HEPES-KOH pH 7.4, 25 mM KCl, 2.5 mM magnesium acetate, 1 mM DTT, 0.05% Tween-20, 1 hour at room temperature; Myc blot; details: both partners purified
T1 construct: Human COG5 in pEGFP-C1; Human COG6-3Myc in MultiLabel vector; Human COG7 in pCMV-3Myc; Human COG8-3Myc in MultiLabel vector; Elution from TALON by imidazole probably releases His6-GBP together with the GFP-tagged complex; also called lobe B sub-complex; purified lobe B; source: HEK293T, transfected; isolated by Sephacryl S-300 HR gel filtration and TALON-GBP beads, eluted with 350 mM imidazole, …
T1 sequence (Q9UP83 whole entry, chain 1 of 4): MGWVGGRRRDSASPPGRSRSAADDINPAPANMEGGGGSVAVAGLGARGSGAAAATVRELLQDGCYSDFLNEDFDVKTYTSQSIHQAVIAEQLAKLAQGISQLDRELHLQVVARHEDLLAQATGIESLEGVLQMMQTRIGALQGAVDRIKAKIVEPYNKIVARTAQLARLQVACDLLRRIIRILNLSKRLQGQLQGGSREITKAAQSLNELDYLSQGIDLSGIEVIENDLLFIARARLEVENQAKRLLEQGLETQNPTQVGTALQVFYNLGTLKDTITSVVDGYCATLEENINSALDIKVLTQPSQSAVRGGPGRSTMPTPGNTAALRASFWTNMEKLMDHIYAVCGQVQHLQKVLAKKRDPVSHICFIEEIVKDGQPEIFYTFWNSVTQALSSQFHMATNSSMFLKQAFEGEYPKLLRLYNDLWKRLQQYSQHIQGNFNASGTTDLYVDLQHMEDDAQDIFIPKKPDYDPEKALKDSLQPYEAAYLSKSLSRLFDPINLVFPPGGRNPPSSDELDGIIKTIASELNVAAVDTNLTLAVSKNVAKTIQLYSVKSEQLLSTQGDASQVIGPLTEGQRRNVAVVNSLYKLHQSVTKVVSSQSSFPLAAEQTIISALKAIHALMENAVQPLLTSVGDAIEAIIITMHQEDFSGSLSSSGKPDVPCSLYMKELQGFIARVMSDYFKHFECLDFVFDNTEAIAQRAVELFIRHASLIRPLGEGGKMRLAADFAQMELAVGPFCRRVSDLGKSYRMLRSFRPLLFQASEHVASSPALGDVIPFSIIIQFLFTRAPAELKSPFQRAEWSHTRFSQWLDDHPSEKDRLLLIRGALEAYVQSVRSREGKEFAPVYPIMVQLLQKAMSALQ
T1 sequence (Q9Y2V7 whole entry, chain 2 of 4): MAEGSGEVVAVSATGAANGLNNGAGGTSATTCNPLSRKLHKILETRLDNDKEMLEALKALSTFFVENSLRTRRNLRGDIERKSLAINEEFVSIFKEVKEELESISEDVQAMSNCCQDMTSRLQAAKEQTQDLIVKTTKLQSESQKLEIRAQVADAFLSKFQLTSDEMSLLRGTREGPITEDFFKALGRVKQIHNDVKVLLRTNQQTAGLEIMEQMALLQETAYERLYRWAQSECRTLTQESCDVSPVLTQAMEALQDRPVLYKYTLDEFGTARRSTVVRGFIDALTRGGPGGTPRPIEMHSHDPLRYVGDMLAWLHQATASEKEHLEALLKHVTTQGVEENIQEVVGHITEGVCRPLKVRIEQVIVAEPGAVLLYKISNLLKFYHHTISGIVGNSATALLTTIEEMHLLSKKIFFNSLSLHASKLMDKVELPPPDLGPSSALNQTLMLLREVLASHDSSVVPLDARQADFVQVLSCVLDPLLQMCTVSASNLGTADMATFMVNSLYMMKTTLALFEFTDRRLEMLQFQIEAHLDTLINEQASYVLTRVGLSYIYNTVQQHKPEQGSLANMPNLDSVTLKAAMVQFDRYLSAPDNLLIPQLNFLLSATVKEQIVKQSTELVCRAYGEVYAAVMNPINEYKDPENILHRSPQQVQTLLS
T1 sequence (P83436 whole entry, chain 3 of 4): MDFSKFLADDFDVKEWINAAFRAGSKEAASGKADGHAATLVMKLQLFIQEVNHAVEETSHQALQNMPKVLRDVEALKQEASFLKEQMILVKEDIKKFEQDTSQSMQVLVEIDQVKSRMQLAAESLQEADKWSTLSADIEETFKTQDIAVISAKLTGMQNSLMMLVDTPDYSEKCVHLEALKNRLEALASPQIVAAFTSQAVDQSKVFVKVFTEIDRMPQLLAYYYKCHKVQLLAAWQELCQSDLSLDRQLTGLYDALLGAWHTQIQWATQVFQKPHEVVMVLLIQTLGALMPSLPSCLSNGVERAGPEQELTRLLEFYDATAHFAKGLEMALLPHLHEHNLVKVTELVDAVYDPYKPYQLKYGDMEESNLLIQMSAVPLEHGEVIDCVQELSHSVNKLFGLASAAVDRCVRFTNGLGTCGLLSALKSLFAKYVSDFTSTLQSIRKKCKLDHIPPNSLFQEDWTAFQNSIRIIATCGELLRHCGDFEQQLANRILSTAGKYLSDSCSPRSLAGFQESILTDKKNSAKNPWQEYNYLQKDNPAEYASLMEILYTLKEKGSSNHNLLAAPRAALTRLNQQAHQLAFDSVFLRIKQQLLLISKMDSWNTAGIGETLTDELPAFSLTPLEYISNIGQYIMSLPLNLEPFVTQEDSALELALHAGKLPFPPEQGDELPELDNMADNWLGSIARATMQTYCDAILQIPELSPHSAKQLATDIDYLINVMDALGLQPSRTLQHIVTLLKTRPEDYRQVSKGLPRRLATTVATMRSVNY
T1 sequence (Q96MW5 whole entry, chain 4 of 4): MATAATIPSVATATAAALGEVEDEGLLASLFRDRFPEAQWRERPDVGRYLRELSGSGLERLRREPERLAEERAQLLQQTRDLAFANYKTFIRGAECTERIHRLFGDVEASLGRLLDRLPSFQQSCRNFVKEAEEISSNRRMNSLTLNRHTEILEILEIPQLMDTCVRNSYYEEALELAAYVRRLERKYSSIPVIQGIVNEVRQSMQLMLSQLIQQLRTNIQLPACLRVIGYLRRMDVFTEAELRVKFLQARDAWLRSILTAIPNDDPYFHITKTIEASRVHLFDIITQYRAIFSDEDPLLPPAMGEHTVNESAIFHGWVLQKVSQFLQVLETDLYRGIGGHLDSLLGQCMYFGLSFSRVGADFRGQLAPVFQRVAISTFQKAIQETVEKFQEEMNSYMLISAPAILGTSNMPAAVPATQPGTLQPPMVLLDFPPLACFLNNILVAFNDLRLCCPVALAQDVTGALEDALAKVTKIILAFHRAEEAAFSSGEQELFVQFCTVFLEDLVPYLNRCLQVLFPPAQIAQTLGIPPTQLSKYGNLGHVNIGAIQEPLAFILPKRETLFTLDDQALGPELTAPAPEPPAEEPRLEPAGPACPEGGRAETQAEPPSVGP

[4] = target: T2, whole COG complex isolated from HEK cells (GFP-mCOG3 + hCOG1/2/4-3Myc + hCOG6/8-3Myc + hCOG5/7-3Myc) (human | mouse, UniProt Q8WTW3 1-980; Q14746 1-738; Q8CI04 1-820; Q9H9E3 1-785; Q9UP83 1-860; Q9Y2V7 …); assay: as above; details: both partners purified
T2 construct: Human COG1-3Myc in MultiLabel vector; Human COG2Streptag-3Myc in MultiLabel vector; Mouse COG3 in pEGFP-C1; Human COG4-3Myc in MultiLabel vector; Human COG5-3Myc in MultiLabel vector; Human COG6-3Myc in MultiLabel vector; Human COG7-3Myc in MultiLabel vector; Human COG8-3Myc in MultiLabel vector; Elution from TALON by imidazole probably releases His6-GBP together with the GFP-tagged complex; also …

co-IP efficiency (percent of input) [1]: 0.3%
Molecule: COG1-HA-GS-COG8 hybrid (hCOG1-HA-GS-TEV-hCOG8-3Myc)

percent pull-down [2]: < 12%
Molecule: lobe B sub-complex, myc-tagged (hCOG5-3Myc, hCOG6-3Myc, hCOG7-3Myc, hCOG8-3Myc), Q9UP83 1-860; Q9Y2V7 1-657; P83436 1-770; Q96MW5 1-612

binding result [3]: binds
binding result [4]: binds
B1: His-hGS15-GST, full-length (FL) GS15 cytoplasmic domain (aa 1–86) (domain or fragment, human, UniProt Q9NYM9 1-86, looked up)
chain: MADWARAQSPGAVEEILDRENKRMADSLASKVTRLKSLALDIDRDAEDQNRYLDGMDSDFTSMTSLLTGSVKRFSTMARSGQDNRK
notes: Human GS15 cytoplasmic domain (aa 1–86) in pET28a; also called GST-tagged full-length (FL) GS15 cytoplasmic domain; not shown: GST, C-terminal, kept
